This is an account of results in PMC4938167, “Structural Insights into the Polyphyletic Origins of Glycyl tRNA Synthetases*^([image sbox.jpg])^♦” (The Journal of Biological Chemistry, 2016).

The target in one series is T1, α-AaGlyRS (Aquifex aeolicus, UniProt O67081).
T1 construct: gene glyQ; alpha subunit alone of alpha2beta2 GlyRS; synthetic codon-optimised gene in pET-28, N-terminal His6 (His tag/TEV residues kept), E. coli BL21(DE3)
Put plainly: thermal shift assay, SYPRO Orange. The settings on record: 8 mM GSAd; reference Tm without ligand 83.2 °C; 25 mM NaH2PO4, 25 mM KCl, 10 mM MgCl2. The format is binding.

Substrate in the series “purified protein”: NCC(=O)O
The series is described as follows: purified protein. It counts as biochemical, Aquifex aeolicus. The settings on record: 0.5 mM ATP, 10 mM MgCl2, 50 mM Tris pH 8.0, 50 mM KCl, 45 °C, 40 μM enzyme, alpha subunit alone.

Series [1] concerns the molecule itself. Put plainly: SEC-MALS; Superdex S-75 10/300 analytical column, 0.5 ml/min, DAWN Heleos-II and Optilab RI detectors; protein loaded after concentration to 15 mg/ml; one peak with 99.9% of the injected mass. On the technique in general: Size exclusion chromatography separates by hydrodynamic size, large species first.

Consider `NCC(=O)NS(=O)(=O)OC[C@H]1O[C@@H](n2cnc3c(N)ncnc32)[C@H](O)[C@@H]1O` [GSAd, 5′-O-[N-(L-glycyl)sulfamoyl] adenosine], for which, on α-AaGlyRS, the “Tm with 8 mM ligand” value was found to be 92.3 °C.

B1: α-subunit of the α2β2 glycyl tRNA synthetase (GlyRS) from Aquifex aeolicus (enzyme)
chain: MYFQDIIMTLHKFWAEKGCLIWQPYDVEVGAGTMNPATFLKVLGKKPWNVAYVEPSRRPQDGRYGENPNRLQHYYQFQVILKPAPRNPQEIYLESLERLGINPLEHDIRFVEDDWESPTLGAWGLGWEVWLDGMEITQFTYFQQAGGLDLDEISVEITYGLERIAMYIQDKDSVFDIEWKEGITYGEIFKRSEWEWSKYNFELADTDMLFQVYEMFEKESKRMVEEGLIFPAYDYLLKCSHVFNILDARGAISVQERARYIRRMNNLAREIAKLYLQVFENVGAT
notes: Glycyl tRNA synthetase α-subunit, Aquifex aeolicus; synthetic cDNA (Genscript), codon-optimised for E. coli, in pET-28; No cleavage of the tag is described; The theoretical mass of the dimer is printed as 67.4 kDa; Crystals were soaked with the glycyl adenylate analog GSAd; also called α-AaGlyRS; α-subunit GlyRS; source: E. coli BL21(DE3), purified (heat treatment 75 °C, Ni2+-Sepharose, size …)
As to B1, in the series “purified protein”, the Michaelis-Menten constant (Km) came out at 110 ± 16 µM and the turnover number (kcat) is 0.00023 s⁻¹. Also, the “stoichiometry N” value in series [1] amounted to 2.

In general, Km refers to the concentration of substrate that gives half-maximal velocity. As a reminder, the kcat is the number of substrate molecules converted per active site and unit of time at saturation. Usually stoichiometry N stands for a count of units in the complex or per binding partner.
